Patent US20250276075A1, “METHODS OF TREATING AXL-EXPRESSING CANCERS WITH ANTI-AXL ANTIBODIES, ANTIBODY FRAGMENTS AND THEIR IMMUNOCONJUGATES” (BIOATLA, INC., priority 2020, published 2025)

Test: Phase 1 clinical study of BA3011: safety (adverse events, DLT, MTD, RP2D)
Format: in vivo, human
Conditions: for Alanine aminotransferase increased, % / Alopecia, % / Anemia, % / Arthralgia, % / Aspartate aminotransferase increased, % / Blood alkaline phosphatase increased, % / Blood bilirubin increased, % / Bone pain, % / Constipation, % / Decreased appetite, % / Diarrhea, % / Fatigue, % / Hypokalemia, % / Hyponatremia, % / Lymphocyte count decreased, % / Nausea, % / Neutrophil count decreased, % / Patients with at least one TEAE, % / Peripheral neuropathy, % / Stomatitis, % / Vomiting, %: sarcoma patients
Text: MTD evaluation will be based on the DLT-evaluable Population. The DLT-evaluable Population includes all patients enrolled in Phase 1 dose escalation who receive at least 1 full assigned dose of BA3011 and complete the safety follow-up through the DLT-evaluation period (defined as the time period from the first dose of BA3011 through 21 days post Dose 1) or experience any DLT during the DLT-evaluation period. Non-DLT-evaluable patients will be replaced. The safety evaluation will be based on the As-Treated Population. Adverse events (AEs) will be coded by Medical Dictionary for Regulatory Activities (MedDRA) and graded according to the NCI CTCAE v4.03, and the type, incidence, severity, and relationship to each IP will be summarized. If any associations of interest between AEs and baseline characteristics are observed, additional stratified results may be presented. All treatment-emergent AEs will be summarized by MedDRA system organ class and preferred term. Laboratory abnormalities with toxicity grades according to the NCI CTCAE will be summarized.
A DLT is defined as meeting 1 of the following criteria during the 21-day DLT evaluation period or a treatment-related toxicity of any grade requiring dose delay of 1 week or more between the first and second cycles: • Non-hematologic Toxicity • For non-hematologic toxicities, DLT will be defined as any National Cancer Institute (NCI) Common Terminology Criteria for Adverse Events (CTCAE) v4.03 (published 14 Jun. 2010) Grade 3 or greater toxicity at least possibly related to treatment, except for: • Grade 3 fatigue. • Grade 3 nausea and vomiting lasting less than 24 hours. • Grade 3 non-hematologic laboratory abnormalities that are asymptomatic and resolve to Grade 1 or baseline (if the patient entered the study with existing toxicity) within 14 days. • Grade 3 or 4 allergic or hypersensitivity reaction at first occurrence in the absence of prophylactic steroid that resolves in less than 6 hours with appropriate clinical intervention
• DLT for hematologic toxicity, using NCI CTCAE v4.03, will be defined as: • Grade 4 neutropenia lasting greater than 7 days. • Grade 3 or 4 febrile neutropenia. • Grade 4 platelet count (<25,000/mm3) at any time.
Study BA3011-001 was an ongoing, multi-center, open-label, Phase 1/2 first-in-human trial of BA3011.
In Phase 1 (NCT03425279), BA3011 was administered once (Q3W) or twice (2Q3W) every 3 weeks via intravenous (IV) infusion.

[1] = 0.3 mg/kg Q3W, 1 sarcoma patient, Phase 1
[2] = 1.2 mg/kg 2Q3W, 2 sarcoma patients, Phase 1
[3] = 1.8 mg/kg 2Q3W, 19 sarcoma patients, Phase 1
[4] = 1.8 mg/kg Q3W, 2 sarcoma patients, Phase 1
[5] = 2.4 mg/kg Q3W, 2 sarcoma patients, Phase 1
[6] = Related TEAEs, All Grades, Phase 1
[7] = Related TEAEs, Grade 3, Phase 1
[8] = Related TEAEs, Grade 4, Phase 1
[9] = Total, 26 sarcoma patients, Phase 1

B1: Mecbotamab vedotin (conjugate, chains of the INN, looked up)
VH: EVQLVQSGAEVKKPGATVKISCKVSGYSFWGATMNWIRQPPGKGLEWIGLIKPSNGGTSYNQKFKGRVTISADKSISTAYLQWSSLKASDTAMYYCAHGHYESYEAMDYWGQGTLVTVSS
VL: DIQMTQSPSSLSASVGDRVTITCKASQDVVSAVAWYQQKPGQAPRLLIYWQDTRHTGVPSRFSGSGSGTEFTLTISSLQPDDFATYYCQEHFSPPLTFGQGTKVEIK
modifications: MC-vc-PAB-MMAE conjugate
Any TEAE, % of patients [1]: 100.0%
Any TEAE, no. of patients [1]: 1
Any related serious TEAE, no. of patients [1]: 0
Any serious TEAE, no. of patients [1]: 0
Related TEAE leading to treatment discontinuation, no. of patients [1]: 0
Related TEAEs with CTCAE grade 3 or 4, no. of patients [1]: 0
TEAE leading to treatment discontinuation, no. of patients [1]: 0
TEAE with CTCAE grade 3 or 4, no. of patients [1]: 0
TEAEs leading to death, no. of patients [1]: 0
Any TEAE, % of patients [2]: 100.0%
Any TEAE, no. of patients [2]: 2
Any related serious TEAE, no. of patients [2]: 0
Any serious TEAE, no. of patients [2]: 0
Related TEAE leading to treatment discontinuation, no. of patients [2]: 0
Related TEAEs with CTCAE grade 3 or 4, no. of patients [2]: 0
TEAE leading to treatment discontinuation, no. of patients [2]: 0
TEAE with CTCAE grade 3 or 4, % of patients [2]: 100.0%
TEAE with CTCAE grade 3 or 4, no. of patients [2]: 2
TEAEs leading to death, no. of patients [2]: 0
Any TEAE, % of patients [3]: (100.0%)
Any TEAE, no. of patients [3]: 19
Any related serious TEAE, % of patients [3]: (5.3%)
Any serious TEAE, % of patients [3]: (36.8%)
Any serious TEAE, no. of patients [3]: 7
Related TEAE leading to treatment discontinuation, % of patients [3]: (10.5%)
Related TEAEs with CTCAE grade 3 or 4, % of patients [3]: (57.9%)
Related TEAEs with CTCAE grade 3 or 4, no. of patients [3]: 11
TEAE leading to treatment discontinuation, % of patients [3]: (10.5%)
TEAE leading to treatment discontinuation, no. of patients [3]: 2
TEAE with CTCAE grade 3 or 4, % of patients [3]: (68.4%)
TEAE with CTCAE grade 3 or 4, no. of patients [3]: 13
TEAEs leading to death, no. of patients [3]: 0
Any related serious TEAE, no. of patients (1.8 mg/kg 2Q3W, 19 sarcoma patients, Phase 1, hepatic encephalopathy, CTCAE grade 2): 1
Related TEAE leading to treatment discontinuation, no. of patients (1.8 mg/kg 2Q3W, 19 sarcoma patients, Phase 1, neuropathy peripheral grade 2, fatigue grade 3): 2
Any TEAE, % of patients [4]: (100.0%)
Any TEAE, no. of patients [4]: 2
Any related serious TEAE, no. of patients [4]: 0
Any serious TEAE, % of patients [4]: (50.0%)
Any serious TEAE, no. of patients [4]: 1
Related TEAE leading to treatment discontinuation, no. of patients [4]: 0
Related TEAEs with CTCAE grade 3 or 4, no. of patients [4]: 0
TEAE leading to treatment discontinuation, no. of patients [4]: 0
TEAE with CTCAE grade 3 or 4, % of patients [4]: (50.0%)
TEAE with CTCAE grade 3 or 4, no. of patients [4]: 1
TEAEs leading to death, no. of patients [4]: 0
Any TEAE, % of patients [5]: (100.0%)
Any TEAE, no. of patients [5]: 2
Any related serious TEAE, no. of patients [5]: 0
Any serious TEAE, % of patients [5]: (50.0%)
Any serious TEAE, no. of patients [5]: 1
Related TEAE leading to treatment discontinuation, no. of patients [5]: 0
Related TEAEs with CTCAE grade 3 or 4, % of patients [5]: (50.0%)
Related TEAEs with CTCAE grade 3 or 4, no. of patients [5]: 1
TEAE leading to treatment discontinuation, no. of patients [5]: 0
TEAE with CTCAE grade 3 or 4, % of patients [5]: (50.0%)
TEAE with CTCAE grade 3 or 4, no. of patients [5]: 1
TEAEs leading to death, no. of patients [5]: 0
Alanine aminotransferase increased, % (All TEAEs, All Grades, Phase 1): (46.2) %
Alopecia, % (All TEAEs, All Grades, Phase 1): (23.9) %
Anemia, % (All TEAEs, All Grades, Phase 1): (15.4) %
Arthralgia, % (All TEAEs, All Grades, Phase 1): (23.9) %
Aspartate aminotransferase increased, % (All TEAEs, All Grades, Phase 1): (42.3) %
Blood alkaline phosphatase increased, % (All TEAEs, All Grades, Phase 1): (23.9) %
Blood bilirubin increased, % (All TEAEs, All Grades, Phase 1): (3.8) %
Bone pain, % (All TEAEs, All Grades, Phase 1): (26.9) %
Constipation, % (All TEAEs, All Grades, Phase 1): (26.9) %
Decreased appetite, % (All TEAEs, All Grades, Phase 1): (23.9) %
Diarrhea, % (All TEAEs, All Grades, Phase 1): (26.9) %
Fatigue, % (All TEAEs, All Grades, Phase 1): (61.5) %
Hypokalemia, % (All TEAEs, All Grades, Phase 1): (15.4) %
Hyponatremia, % (All TEAEs, All Grades, Phase 1): (11.5) %
Lymphocyte count decreased, % (All TEAEs, All Grades, Phase 1): (7.7) %
Nausea, % (All TEAEs, All Grades, Phase 1): (58.3) %
Neutrophil count decreased, % (All TEAEs, All Grades, Phase 1): (26.9) %
Patients with at least one TEAE, % (All TEAEs, All Grades, Phase 1): (100.0) %
Peripheral neuropathy, % (All TEAEs, All Grades, Phase 1): (15.4) %
Stomatitis, % (All TEAEs, All Grades, Phase 1): (3.8) %
Vomiting, % (All TEAEs, All Grades, Phase 1): (23.9) %
Anemia, % (All TEAEs, Grade 3, Phase 1): (7.7) %
Aspartate aminotransferase increased, % (All TEAEs, Grade 3, Phase 1): (3.8) %
Blood bilirubin increased, % (All TEAEs, Grade 3, Phase 1): (3.8) %
Constipation, % (All TEAEs, Grade 3, Phase 1): (3.8) %
Hypokalemia, % (All TEAEs, Grade 3, Phase 1): (11.5) %
Hyponatremia, % (All TEAEs, Grade 3, Phase 1): (7.7) %
Lymphocyte count decreased, % (All TEAEs, Grade 3, Phase 1): (3.8) %
Nausea, % (All TEAEs, Grade 3, Phase 1): (3.8) %
Neutrophil count decreased, % (All TEAEs, Grade 3, Phase 1): (15.4) %
Patients with at least one TEAE, % (All TEAEs, Grade 3, Phase 1): (57.7) %
Peripheral neuropathy, % (All TEAEs, Grade 3, Phase 1): (3.8) %
Stomatitis, % (All TEAEs, Grade 3, Phase 1): (3.8) %
Vomiting, % (All TEAEs, Grade 3, Phase 1): (3.8) %
Neutrophil count decreased, % (All TEAEs, Grade 4, Phase 1): 3.8%
Patients with at least one TEAE, % (All TEAEs, Grade 4, Phase 1): 7.7%
on-target toxicity to normal AXL-expressing tissue (Phase 1): No clinically meaningful on-target toxicity was observed
rate of constipation (Phase 1): low
dose-limiting toxicities (Phase 1, highest dose tested): limited to monomethyl auristatin E (MMAE) conjugate-associated toxicity at the highest dose tested, including reversible neutropenia
SAE related to treatment (grade 2 hepatic encephalopathy) (Phase 1 sarcoma patients): 1 patient
patients with grade 3 related TEAEs (Phase 1 sarcoma patients): Eleven
patients with grade 4 neutropenia (Phase 1 sarcoma patients): 1 patient
treatment-emergent adverse events (TEAEs) leading to death (Phase 1 sarcoma patients): no treatment-emergent adverse events (TEAEs) leading to death
treatment-related TEAEs leading to treatment discontinuation (Phase 1 sarcoma patients): 2 (7.7%) patients
Alanine aminotransferase increased, % [6]: (38.5) %
Alopecia, % [6]: (23.1) %
Anemia, % [6]: (3.8) %
Arthralgia, % [6]: (3.8) %
Aspartate aminotransferase increased, % [6]: (42.3) %
Blood alkaline phosphatase increased, % [6]: (19.2) %
Blood bilirubin increased, % [6]: (3.8) %
Bone pain, % [6]: (3.8) %
Constipation, % [6]: (15.4) %
Decreased appetite, % [6]: (15.4) %
Diarrhea, % [6]: (19.2) %
Fatigue, % [6]: (42.3) %
Hypokalemia, % [6]: (15.4) %
Hyponatremia, % [6]: (3.8) %
Lymphocyte count decreased, % [6]: (7.7) %
Nausea, % [6]: (38.5) %
Neutrophil count decreased, % [6]: (26.9) %
Patients with at least one TEAE, % [6]: (84.6) %
Peripheral neuropathy, % [6]: (15.4) %
Stomatitis, % [6]: (3.8) %
Vomiting, % [6]: (19.2) %
Anemia, % [7]: (3.8) %
Aspartate aminotransferase increased, % [7]: (3.8) %
Blood bilirubin increased, % [7]: (3.8) %
Hypokalemia, % [7]: (11.5) %
Hyponatremia, % [7]: (3.8) %
Lymphocyte count decreased, % [7]: (3.8) %
Nausea, % [7]: (3.8) %
Neutrophil count decreased, % [7]: (15.4) %
Patients with at least one TEAE, % [7]: (42.3) %
Peripheral neuropathy, % [7]: (3.8) %
Stomatitis, % [7]: (3.8) %
Vomiting, % [7]: (3.8) %
Neutrophil count decreased, % [8]: 3.8%
Patients with at least one TEAE, % [8]: 3.8%
Any TEAE, % of patients [9]: (100.0)%
Any TEAE, no. of patients [9]: 26
Any related serious TEAE, % of patients [9]: (3.8%)
Any related serious TEAE, no. of patients [9]: 1
Any serious TEAE, % of patients [9]: (34.6%)
Any serious TEAE, no. of patients [9]: 9
Related TEAE leading to treatment discontinuation, no. of patients [9]: 2
Related TEAEs with CTCAE grade 3 or 4, % of patients [9]: (46.2%)
Related TEAEs with CTCAE grade 3 or 4, no. of patients [9]: 12
TEAE leading to treatment discontinuation, % of patients [9]: (7.7%)
TEAE leading to treatment discontinuation, no. of patients [9]: 2
TEAE with CTCAE grade 3 or 4, % of patients [9]: (65.4%)
TEAE with CTCAE grade 3 or 4, no. of patients [9]: 17
TEAEs leading to death, no. of patients [9]: 0
transient grade 1-2 liver enzyme elevations (seen during cycle 1 treatment): generally did not re-occur upon re-treatment
creatinine levels (throughout treatment): generally unchanged throughout treatment
